Experimental data from the DeepSol protein solubility set.

Assay: soluble on expression in E. coli; label from the status in PepcDB or PDB records

Soluble on expression in E. coli, not soluble:
MGSDKIHHHHHHMNHIMLGTTNISIFPLVFGTLPLGPLQAGLSPSEGGRLIRHALEHGVTMIDTATLYDTYPHVREGIAGWQGDVTIVTKTHANDGPTARAHVEKGLRELGRERLDIVHLHGARVADPFSDRADVLAELLRMKDEGKIGHVGLSSHYICAILKAADHPEIEVVHPLINRTGMGILDGSAAEMAEAIAACARAGKGVYAMKALAGGNLIAEARASLAYVRGLEGVHGVAIGMLSEAEVEANIALFSGNAPEDEVWRQLESRRRKLRIMENFCKGCGGCVEACASGALTVVNGKAVLDEAACILCGYCAASCPEFIIRVV
MGSDKIHHHHHHMNIIIIGAQASGKMTIGQEIAKQTGMTLFHNHDSIDFVLRFMPWSPDSIALTESIRFKFFETFAKTGQEMIFTIVIDFNDSRDVVFLEKIQIVFQSHNQEVLFVELETELSERLKRNRTENRLKHKPSKRDIKWSESDICSTMDYAIFNPEVAPEALTYYHKINNTCLTATETAYLIIQKINQIKEKN
MGSDKIHHHHHHMNIKDLQYYVSLTQLKNFSLVAAQFHVSQPTISAAIRRLETELKTQLLIRANPHLPVALTTTGIQVQRHANQILLEHQLMCQEVAHTTTDQLVIGMPPIIEINYFPRIASQLPQALFSQIQPISQGSLAALKGLKNGQLDLAVLAYLNEFTDTTIQLTTFDTQSFSIVVPTDDPLATNSQLQFRSLRHQHFVALKDNFVHRQAFRQLSHQNHVRPTIVFESNEIGSILNMVRQHVGIALLSNAVQLPAGLQRLPLTDAQAPTFNVGVAYRHSMTFSPTQADLIQRLTAAFQSVDWRAY
MGSDKIHHHHHHMNKHIASMLLGALLLNVGCSAIMSEKGFITQDKQVTQFNTEYIEKLAQSLPQHMVNQISIDGDEQVSLKGLFIDNPNSHTLVFFIQGNGMKVDPDSLAVLLTLSQLGTDIAIFDRRGLGASNGQATIANLLTDAIQELTFIRHTYQPDKVIVHGYSLGSFIAAQLVKNQAADALVMQGSATNVDDWIATKIPWYMPFLTVETPESFKLVDNQEVVSKFYQGPLMVIGAEKDDQVPAELSEKLFLASQSKIKSLIIVPKANHGEMLNSAKTMQAYREFLARI
MGSDKIHHHHHHMNKKFLLTGASGFVGKHLYSINPSQFRCVVREDGERFPDAYKVNGINSKTDWTDSFLDIDCIIHLAGLAHSNNNRNDEYRETNFLGTLCLAQQASKSGVKRFVFVSSIGVNGNATLEKPFSIFDEPKPLNSYTNSKYDAEIGLKKIAAETGLEVVIVRPTLVYGPNAPGNFGLLTKLVKKLPVLPFGLANNKRDFIAVQNLADLLITCATHPNAAGHMFLASDMETVSIKQFTNAIADGLGKKVFQFPIPVSLMRLTGKLMRKSAMVEQLLGNLQVDSSNIKEVLDWTPPLTMKQAMTTLCDSGKSS
MGSDKIHHHHHHMNKYIMLLMVSLLSACSSTPRKPIPDDPFYAPVYPDAPATQTAATGSIFLDSQASSLYSDIRAHKIGDIITVVLMESTQAKKSATNDIKKGSDMSMDPLFAGGGNVTIKGVPLDLKYKDAYNTKRESDADQSNSLAGSISANVMQVLSNGNLVIRGEKWISINNGDEFIRVTGIVRSQDIKPDNTIESVRVANARIQYSGTGTFADAQKVGWLGQFFLGEWWPF
MGSDKIHHHHHHMNLATSERAQLATLLLEKGPNFPTLCGDWNTQELAAHLLIRESRPWIAAGMFLPGGSRIVADAMRKITQQPFEHVVAQWMKGPKWGYLGRYLDSVANRIEHFVHHEDVRRGETTVGQWQNLDLLPCNAKPRVLSERHSGELYDAMRWVAPLLLRRSACPVVIEPIGFPRLVVADAGVVSTRGDCVVHVRGDIGEVVLWILGRNQVDLFVDGPTHLLKKSSL
MGSDKIHHHHHHMNLAYLILAHNNPNHLQKLISSLDTSDVHFFVHIDGKSNILPFQANLISNKVTFVQERRNIFWGEFSIVQATIDLMKTALNKQDFDYLILISGSDYPLKNAQYIKDFFSKNKGSEFINLVELPNEQASKNLNRLYQYRISFSSKNIVLRAFRRVINCIINDLFHWQRNYRKSLGELKPYAGSQWWALSGDACNYILNFIAKNPEILKFFQTALIPDESFFHTILANSDFLTKVKPNLTFTKWNDTAHPEYITVEIVRDFKGMDAIYNHSIGGYGEVLFARKFAPDSDEVIKFINDNIA
MGSDKIHHHHHHMNLLSLYHFFAGKASDKQKEAIKRWAESSPDNYETLCREKKIFDAGILLVDKKELFQKENAPLLYKLINYTVKIAAVVLLVVVSVTIYKYQELVKKSEVLQTILVPAGQRINIILPDSTFVCLNSNTKFSYPSVFATNNRKVKLDGEAYFEVSANKNKPFYVHTSKGEIKVLGTHFNLEAYSNADVFKTSLFEGKVRVRVKGNNIYLKPDQMVCYHKNGKIHLETIHDYDQFRWREGLICIKSAKLKDIMKTFTKYFGDSIVIQNKEVEHYKYTGKFRQSRGVINALRLLQKDAPFTIEQDEDKQIIYIK
MGSDKIHHHHHHMNNKIYFTPGPSELYPTVRQHMITALDEKIGVISHRSKKFEEVYKTASDNLKTLLELPSNYEVLFLASATEIWERIIQNCVEKKSFHCVNGSFSKRFYEFAGELGREAYKEEAAFGKGFYPADITVPADAEIICLTHNETSSGVSMPVEDINTFRDKNKDALIFVDAVSSLPYPKFDWTKIDSVFFSVQKCFGLPAGLGVWILNDRVIEKSKALLAKRKSIGTYHTIPSMLEKARVNQTPETPNAMNIFLLGKVTGDMLQISADGIRKQTEEKAALINTYIESSKVFSFGVEDAKLRSMTTIVANTTMLPGEINKILEPFDMAVGAGYGSKKETQIRIANFPAHSLEQVHKLVQTLKEKIG
MGSDKIHHHHHHMNNMEIWVVDDDRDYCELIVEMLQDEFKVSPFYGAADFRVALQTQKPDLLLMDINLPDTDGITLCRELQASNQEVAVLFVSGMNTLEERLKAYEVNAVDFIAKPFELKELLAKVHSVAHYVMKQRELIQAESVSRNMAFQSMTESSQYGCVLQFFRQCFLCNDHQTLADAFFDLMQQLNLNTCLEIRGENVEYFAPRHAAISPIESNILELLDKHGRLYDFGCRTICNDKHVSFLIKNMPINDEVLYGRLRDIIAVVVEGLEARVLDISRQQTLTQVFLDIESLIGDINVATLEHDEKFSAALINMTTEIRGSFHVLDMTIEQEDYFTALIERNLKEVKSASEAFTRLQSALGKVMDVLGGSVS
MGSDKIHHHHHHMNPGWRVVDLIDFDGKVSYQRGQLAITSDSGELRATLPLAQIAVVLIGNKLIISGAVLVKLSEYDIAVLVCDWRRVPVAGSFSWNEHTRIAARQRAQASLSLPRQKSAWAQIIKAKILGQARTAAQLGFDATDLKNLARAVRSGDVDNREAMAAKRYWEIISAEDDFRRLPGLAATGWNGALDYAYTVLRGHGMRAICSAGLVGTLGVFHHGRGNQFALVDDLIEPFRPAIDYAVFSIVSNSQELDKETKRQLVAAVEEPFNSAGQSIPTVFTAFAQQYGRYVEGDVEKLVPPIWEGPFDAEER
MGSDKIHHHHHHMNPLNLIECLEQKERYTYNEGLIIDFILSHTERVLHMSIYELAEATNSSTSTIVRLCKKTETSGFKEFKIRLSRDLEIHYQAIRNVDANMPFLAQDSDLLIAKKIAQLTTETVQSTQQLLTEAMLNKSIDLLLTAENILAVGVSNSYIRLTDFQTKLLRIQLFIHLIPYQAEQFYLAINATKNDVAILVSYSGNTAEIVNEARIFAEGGTPIIAITSDLNSQLAKYATVILPIPNVEHADFKVSTFSSQLAIEYILNVLYSCIFSRNFDKNYTSQKNTPTSILKF
MGSDKIHHHHHHMNPVLKSSKLVIFDLDGTLYEGTDHFDYYANHLKQNVPQSQQLDFWRDYTAMKDGHHPVQIGKGYDVKRDYILTIDPMTISVQSVQTWDGSYVPAEEWETLYSDPVSFDFETIIAVGDGWWYPFVTAKHYGVEDCYASYVATKEYMVTDEFELTPLPGLREGLIELKATKEIVLVTNSDREDVQRLLHELHLHDVFNHIITSAKKPTRTTDIFKEVVHQYEVDMSQVVSVGDNFMNEIAQALTLGMQGIYIHPQRASEVAHDHLTVIRSVVELFKN
MGSDKIHHHHHHMNTLEIAKEVFEKEAQAILDLATNLDENFNQAVNLMLNTKGRCIVSGMGKSGHIGAKIAATLASTGTPSFFIHPGEALHGDLGMLTSEDVLIAISNSGETEEILKIIPAIKKREIPLIVMCGKKNSTLVKQGDIFLNIAVEKEACPLQLAPMSSTTATLVMGDALAAALMKVRNFKPDDFALFHPGGSLGRKLLTKVKDLMVSSNLPIVHPDTEFNDLVDVMTSGKLGLCVVLENEKLVGIITDGDLRRALKASDKPRFDFKAKEIMSINPKVVDADAMASEAEGIMLKHKIKEIIVGKEEKVVGIIQLYAIGNV
MGSDKIHHHHHHMNTNKRVLILTANYGNGHVQVAKTLYEQCVRLGFQHVTVSNLYQESNPIVSEVTQYLYLKSFSIGKQFYRLFYYGVDKIYNKRKFNIYFKMGNKRLGELVDEHQPDIIINTFPMIVVPEYRRRTGRVIPTFNVMTDFCLHKIWVHENVDKYYVATDYVKEKLLEIGTHPSNVKITGIPIRPQFEESMPVGPIYKKYNLSPNKKVLLIMAGAHGVLKNVKELCENLVKDDQVQVVVVCGKNTALKESLSALEAENGDKLKVLGYVERIDELFRITDCMITKPGGITLTEATAIGVPVILYKPVPGQEKENANFFEDRGAAIVVNRHEEILESVTSLLADEDTLHRMKKNIKDLHLANSSEVILEDILKESEMMTAKQKAKVLS
MGSDKIHHHHHHMNTRNDNSKILEIYKMKLFGELVKAVWNDDIEDIENLPNKILNEDLKDNLNNYFSGKFDKDTMVNLIRVTMGLDVTEDTDKNLKESLHEAVNLDEVKRPIISVISDACKYCDENNKEDESCKIRSKHINCNEEDVCSACGDCVSRCKLGAISDKIEFIPMIKLLKDIKSPVYAIVAPAFVGQFGKDVSPGKLRTALKKIGFEDMIEVALAADMLTAKEAYDYYEHMKKDEEGCFITSCCCPIWVSLIQNSFPQILENVSPSVSPMIACGRAVKILNPDAKVVFIGPCMAKKKEAMLEDIKDAVDFVLTFKELQEIFDALELNPAIMDESNRVEASLSGRVYARTGGVSKAVKLSVRRIDKNIKFEEKAFEGTKECMDGLKKVLNKEIEATFIEGMGCVGGCVGGPKRILSVEEGTKNVDEYSESTNMETPFDNLNVLQFLTSLGIKRVESLGEKEEEKVKKIFSRDIKSNKKENKYKK
MGSDKIHHHHHHMNVEKLKKMKGKEKIVMVTAYDAPSARIARDAGIDVILVGDSLGNNVLGYENTIPVTMEEMLIHVAAVKRGAPDAFIVADMPFLSYQTSVEKAVENAGKFLKVGANAVKIEGGEEFGELVQKLVESGIPVMGHIGLTPQFVNRFGGYRVQGKTEKNREYLLRSARELEKRGAFAIVLELVVEEVAKEITESVSIPTIGIGSGRFCDGQVLVWHDLLGLNPDFAPRFSKKYANLYEVILKALQEFRREVKKGLFPTEEHSFTDKSKGGVSS
MGSDKIHHHHHHMNVENQSLSDIEIILSHRYDNGADYWTTPDKRLIKGSPFSTLDSVLYLLELGVNPDDTLLKECADLIFSTWREDGRFKLYPNGGIYPCHTANAANVLCHMGYASDIRMQKTFQHFLDTQYTDGGWRCNKFSFGRGPETEYSNPLPTLNILNAFRFSNYLNKESKLDKAVDFLLDHWTIKKPIGPCHYGIGTLFMQVEYPFRNYNLFLYVYVLSFYSRAKKDKRFLEALKILESKMIGNKIVVERVVPKLSKLSFCKKGESSEIATTHYYEILKNLDK
